Experimental data taken from patent US20260070987A1.
Residue numbers refer to the chain shown, from its start. In names and notes the source's numbering stands.

B1: equine IgG1 T286G (antibody, part only; not given: variable domains, not shown: another chain or arm of the molecule)
constant: ASTTAPKVFALAPGCGTTSDSTVALGCLVSGYFPEPVKVSWNSGSLTSGVHTFPSVLQSSGFYSLSSMVTVPASTWTSETYICNVVHAASNFKVDKRIEPIPDNHQKVCDMSKCPKCPAPELLGGPSVFIFPPNPKDTLMITRTPEVTCVVVDVSQENPDVKFNWYMDGVEVRGATTRPKEEQFNSTYRVVSVLRIQHQDWLSGKEFKCKVNNQALPQPIERTITKTKGRSQEPQVYVLAPHPDELSKSKVSVTCLVKDFYPPEINIEWQSNGQPELETKYSTTQAQQDSDGSYFLYSKLSVDRNRWQQGTTFTCGVMHEALHNHYTQKNVSKNPGK
B2: equine IgG1 T286I (antibody, part only; not given: variable domains, not shown: another chain or arm of the molecule)
constant: B1 constant with G174I
B3: equine IgG1 T286H (antibody, part only; not given: variable domains, not shown: another chain or arm of the molecule)
constant: B1 constant with G174H
B4: equine IgG1 T286K (antibody, part only; not given: variable domains, not shown: another chain or arm of the molecule)
constant: B1 constant with G174K
B5: equine IgG1 Y436V (antibody, part only; not given: variable domains, not shown: another chain or arm of the molecule)
constant: B1 constant with G174T, Y326V
B6: equine IgG1 Y436W (antibody, part only; not given: Variable domains, not shown: another chain or arm of the molecule)
constant: B1 constant with G174T, Y326W
B7: equine IgG4 WT (antibody, part only; not given: Variable domains; allotype unconfirmed, not shown: another chain or arm of the molecule)
constant: ASTTAPKVFPLASHSAATSGSTVALGCLVSSYFPEPVTVSWNSGALTSGVHTFPSVLQSSGLYSLSSMVTVPASSLKSQTYICNVAHPASSTKVDKKIVIKECNGGCPAECLQVGPSVFIFPPKPKDVLMISRTPTVTCVVVDVGHDFPDVQFNWYVDGVETHTATTEPKQEQFNSTYRVVSVLPIQHKDWLSGKEFKCKVNNKALPAPVERTISKPTGQPREPQVYVLAPHRDELSKNKVSVTCLVKDFYPTDIDIEWKSNGQPEPETKYSTTPAQLDSDGSYFLYSKLTVETNRWQQGTTFTCAVMHEALHNHYTEKSVSKSPGK
B8: equine IgG4 K311C (antibody, part only; not given: variable domains, not shown: another chain or arm of the molecule; small tags and cut ends)
constant: B7 constant with K189C
B9: equine IgG4 A426H (antibody, part only; not given: variable domains, not shown: another chain or arm of the molecule)
constant: B7 constant with A306H
B10: equine IgG4 K311W (antibody, part only; not given: variable domains, not shown: another chain or arm of the molecule)
constant: B7 constant with K189W
B11: equine IgG4 K311S (antibody, part only; not given: variable domains, not shown: another chain or arm of the molecule)
constant: B7 constant with K189S
B12: equine IgG4 A426G (antibody, part only; not given: variable domains, not shown: another chain or arm of the molecule)
constant: B7 constant with A306G
B13: equine IgG4 K311I (antibody, part only; not given: variable domains, not shown: another chain or arm of the molecule; small tags and cut ends)
constant: B7 constant with K189I
B14: equine IgG4 A426C (antibody, part only; not given: variable domains, not shown: another chain or arm of the molecule)
constant: B7 constant with A306C
B15: equine IgG4 A426N (antibody, part only; not given: variable domains, not shown: another chain or arm of the molecule)
constant: B7 constant with A306N
B16: equine IgG4 A426E (antibody, part only; not given: variable domains, not shown: another chain or arm of the molecule)
constant: B7 constant with A306E
B17: equine IgG4 K311R (antibody, part only; not given: variable domains, not shown: another chain or arm of the molecule)
constant: B7 constant with K189R
B18: equine IgG4 K311M (antibody, part only; not given: variable domains, not shown: another chain or arm of the molecule)
constant: B7 constant with K189M
B19: equine IgG4 K311D (antibody, part only; not given: variable domains, not shown: another chain or arm of the molecule; small tags and cut ends)
constant: B7 constant with K189D
B20: equine IgG4 K311Q (antibody, part only; not given: variable domains, not shown: another chain or arm of the molecule)
constant: B7 constant with K189Q
B21: equine IgG4 A426Q (antibody, part only; not given: variable domains, not shown: another chain or arm of the molecule)
constant: B7 constant with A306Q
B22: equine IgG4 A426P (antibody, part only; not given: Variable domains, not shown: another chain or arm of the molecule)
constant: B7 constant with A306P
B23: equine IgG4 K311E (antibody, part only; not given: variable domains, not shown: another chain or arm of the molecule; small tags and cut ends)
constant: B7 constant with K189E
B24: equine IgG4 K311L (antibody, part only; not given: Variable domains, not shown: another chain or arm of the molecule)
constant: B7 constant with K189L
B25: equine IgG4 K311Y (antibody, part only; not given: variable domains, not shown: another chain or arm of the molecule)
constant: B7 constant with K189Y
B26: equine IgG4 A426F (antibody, part only; not given: variable domains, not shown: another chain or arm of the molecule)
constant: B7 constant with A306F
B27: equine IgG4 K311H (antibody, part only; not given: variable domains, not shown: another chain or arm of the molecule; small tags and cut ends)
constant: B7 constant with K189H
B28: equine IgG4 K311V (antibody, part only; not given: variable domains, not shown: another chain or arm of the molecule)
constant: B7 constant with K189V
B29: equine IgG4 A426S (antibody, part only; not given: variable domains, not shown: another chain or arm of the molecule)
constant: B7 constant with A306S
B30: equine IgG4 A426L (antibody, part only; not given: variable domains, not shown: another chain or arm of the molecule)
constant: B7 constant with A306L
B31: equine IgG4 K311T (antibody, part only; not given: variable domains, not shown: another chain or arm of the molecule)
constant: B7 constant with K189T
B32: equine IgG4 K311N (antibody, part only; not given: variable domains, not shown: another chain or arm of the molecule)
constant: B7 constant with K189N
B33: equine IgG4 A426M (antibody, part only; not given: Variable domains, not shown: another chain or arm of the molecule)
constant: B7 constant with A306M
B34: equine IgG4 A426R (antibody, part only; not given: variable domains, not shown: another chain or arm of the molecule)
constant: B7 constant with A306R
B35: equine IgG4 A426I (antibody, part only; not given: variable domains, not shown: another chain or arm of the molecule)
constant: B7 constant with A306I
B36: equine IgG4 K311G (antibody, part only; not given: variable domains, not shown: another chain or arm of the molecule; small tags and cut ends)
constant: B7 constant with K189G
B37: equine IgG4 K311P (antibody, part only; not given: Variable domains, not shown: another chain or arm of the molecule)
constant: B7 constant with K189P
B38: equine IgG4 A426K (antibody, part only; not given: variable domains, not shown: another chain or arm of the molecule)
constant: B7 constant with A306K
B39: equine IgG4 K311F (antibody, part only; not given: variable domains, not shown: another chain or arm of the molecule; small tags and cut ends)
constant: B7 constant with K189F
B40: equine IgG4 K311A (antibody, part only; not given: variable domains, not shown: another chain or arm of the molecule)
constant: B7 constant with K189A
B41: equine IgG4 A426D (antibody, part only; not given: variable domains, not shown: another chain or arm of the molecule)
constant: B7 constant with A306D

molecular target: equine FcRn (large alpha subunit p51) / equine beta-2-microglobulin complex, biotinylated (equine) (UniProt P30441); test: SPR (Biacore), pH 6
UniProt P30441, sequence (P30441 21-118, one chain of several): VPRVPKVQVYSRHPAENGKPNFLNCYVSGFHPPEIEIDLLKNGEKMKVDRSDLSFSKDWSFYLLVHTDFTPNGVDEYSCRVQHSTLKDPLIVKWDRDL

Binder | Kd [nM]
B1 | 15
B2 | 18.2
B3 | 22.4
B4 | 37.3
B5 | 9.06
B6 | 10.2
B7 | 22.5
B8 | 23.5
B9 | 17.8
B10 | 27.1
B11 | 12.4
B12 | 33.3
B13 | 30.6
B14 | 18.2
B15 | 18.7
B16 | 18.2
B17 | 16.1
B18 | 16.4
B19 | 64.3
B20 | 21.9
B21 | 21.2

Binder | Kd [nM]
B22 | 9.8
B23 | 75.2
B24 | 28
B25 | 21.3
B26 | 17.6
B27 | 35.6
B28 | 22.4
B29 | 21.1
B30 | 17.4
B31 | 25.5
B32 | 41.1
B33 | 18.5
B34 | 22
B35 | 17.4
B36 | 51.2
B37 | 2000
B38 | 14.5
B39 | 41.8
B40 | 24.8
B41 | 15.5
